Values quoted from earlier work in PMC11316025.

Molecular target: KRAS (Homo sapiens) (UniProt P01116)

RASSF5, sequence (Q8WWW0 whole entry): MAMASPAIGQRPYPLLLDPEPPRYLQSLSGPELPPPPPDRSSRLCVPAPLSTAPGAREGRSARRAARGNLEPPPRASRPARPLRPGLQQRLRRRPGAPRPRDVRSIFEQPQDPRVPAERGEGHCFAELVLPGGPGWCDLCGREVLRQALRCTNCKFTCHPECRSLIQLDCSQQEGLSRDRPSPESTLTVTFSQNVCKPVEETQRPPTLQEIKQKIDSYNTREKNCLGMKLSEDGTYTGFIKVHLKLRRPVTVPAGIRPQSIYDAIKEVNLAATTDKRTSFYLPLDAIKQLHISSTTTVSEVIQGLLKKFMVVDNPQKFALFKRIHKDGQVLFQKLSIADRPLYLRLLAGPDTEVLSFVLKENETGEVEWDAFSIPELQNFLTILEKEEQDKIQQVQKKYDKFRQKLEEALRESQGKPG

Kd: 1.7 µM
Substance: RASSF5 (from UniProt Q8WWW0)
